In EP3717020B1:

Target: endogenous RAS proteins in HeLa cells
Assay: cell-based or functional assay

Substance	EC50 of loss of total RAS proteins in HeLa cells (24 h, anti-RAS immunoblot) [pM]	EC50 of loss of RAS proteins in HeLa cells (anti-RAS immunoblot) [pM]	potency of RAS loss in HeLa cells against RRSP-dta-dtB [fold]
RRSP-dta-dtB (enzyme)	250		
RRSP-Δdta-dtB (enzyme)		1	300
RRSP-APD-Δdta-dtB (enzyme)		1	300
